The values below come from patent US20250027068.

First the molecules themselves.
B1: PRT-252 (protein)
chain: MVTSVWTKGVTPPTNFTYGEDVLHAPYVANQGWYDITKLFNGKDDLLCGAATAGNMLHWWFDQNKEQIENYLKKHPEKQKINFNGEQMFDVKEAIDTKDSQLDSKLFEYFLEKAFPNLSTKHLGVFPDHVIDMFINGYRLSLLNHGPTPVKRGSKDPRGGIFDAVFTRGDQSKLLTNRHDFKEKTLKEISDLIKQELTEGKALGISHTYANGRINHVINLWGADFDAEGNLEAIAVTDSDSNASIGMKKYFVGVNSSGKVAISAKEIEEDNIGAQVLGLFTLSTGQDIWNQTN
B2: PRT-268 (protein)
chain: B1 chain with N15D, T17I, V28K, N30G, E108D, L111K, F181L, E183N, A235Y, A243P
B3: PRT-276 (protein)
chain: MVTSVWTKGVTPPTDFIYGEDVLHAPYKAGQGWYDITKTFNGKDNLLCGAATAGNMLHWWFDQNKEQIENYLKKHPEKQKIIFNNQELFDLKAAIDTKDSQLDSKLFEYFLEKAFPNLSTKHLGVFPDHVIDMFINGYRLSLLNHGPTPVKRGSKDKRGGIFDAVFTRGVQSKLLTNRHDLKNKTLKEISDLIKQELTEGKALGISHTYANVRINHVINLWGADFDAEGNLEAIAVTDSDTNASIGMKKYFVGVNSSGKVAISAKEIEEDNIGAQVLGLFTLSTGQDIWNQTN
B4: PRT-244 (protein)
chain: MVTSVWTKGVTPPANFTQGEDVFHAPYVANQGWYDITKTFNGKDDLLCGAATAGNMLHWWFDQNKDQIKRYLEEHPEKQKINFNGEQMFDVKEAIDTKNHQLDSKLFEYFLEKAFPNLSTKHLGVFPDHVIDMFINGYRLSLLNHGPTPVKEGSKDPRGGIFDAVFTRGDQSKLLTSRHDFKEKNLKEISDLIKKELTEGKALGLSHTYANVRINHVINLWGADFDSNGNLKAIAVTDSDSNASIGMKKYFVGVNSSGKVAISAKEIKEDNIGAQVLGLFTLSTGQDSWNQTN
B5: PRT-260 (protein)
chain: MVTSVWTKGVTPPTNFTYGEDVLHAPYVANQGWYDITKTFNGKDNLLCGAATAGNMLHWWFDQNKEQIENYLKKHPEKQKINFNGEQLFDVKEAIDTKDSQLDSKLFDYFKEKAFPNLSTKHLGVFPDHVIDMFINGYRLSLLNHGPTPVKRGSKDKRGGIFDAVFTRGVQSKLLTNRHDFKEKTLKEISDLIKQELTEGKALGISHTYANVRINHVINLWGADFDAEGNLEAIYVTDSDTNPSIGMKKYFVGVNSSGKVAISAKEIEEDNIGAQVLGLFTLSTGQDIWNQTN
B6: PRT-308 (protein)
chain: MQITSVWTKGVTPLTPEQFRENNEDVIHAPYLAHQGWYDITKAFDGKDNLLCGAATAGNMLHWWFDQNKTEIEAYLSKHPEKQKIIFNNQELFDLKAAIDTKDSQTNSQLFNYFRDKAFPNLSARQLGVMPDLVLDMFINGYYLNVGKTQSTDVNRPYQDKDKRGGIFDAVFTRGDQTTLLTARHDLKNKGLNDISTIIKQELTEGRALALSHTYANVSISHVINLWGADFDAEGNLEAIYVTDSDANASIGMKKYFVGRNAHGHVAISAKKIEGENIGAQVLGLFTLSLGKDIWQKLS
B7: PRT-292 (protein)
chain: MVTSVWTKGVTPPADFTQGEDVFHAPYDANQGWYDITKTFNGKDDLLCGAATAGNMLHWWFDQNKEYIEAYLKKHPEKQKIMFGDQELLDVRKAINTKGSQKNSELFNYFRDKAFPNLSARRLGVMPDLVLDMFINGYYLNVTKTQTTDVNRTYQEKDKRGGIFDAVFTRGDQSKLLTSRHDFKEKGLKEISDLIKQELTEGKALGLSHTYANVRISHVINLWGADFDSDGNLKAIYVTDSDSNASIGMKKYFVGVNSAGKVAISAKEIKEDNIGAQVLGLFTLSTGQDIWNQTN
B8: PRT-301 (protein)
chain: B7 chain with A14T, T17I, Q18K, N30G
B9: PRT-300 (protein)
chain: B7 chain with A14T, T17I, Q18K, D28K, N30G, I216L, S217N, A259S
B10: PRT-293 (protein)
chain: B7 chain with D28V, I216L, S217N, F253G
B11: PRT-323 (protein)
chain: MTITSVWTKGVTPPTPEDFRENNEDVLHAPYVANQGWYDITKTFDGKDNLLCGAATAGNMLHWWFDQNKEEIERYLKKHPEKQKIIFNNQEWFDVKAAIDTKDSQTNSKLFNYFRDKAFPNLSARQLGVMPDLVLDMFINGYYLNLPKTQSTDVNRPYQDKDKRGGIFDAVFTRGDQTTLLTARHDLKNKGLNEISDLIKQELTEGKALALSHTYANVRINHVINLWGADFDAEGNLIAIYVTDSDANASIGMKKYAVGVNANGKVAISAKKIEGDNIGAQVLGLFTLSTGQDIWQKLS
B12: PRT-332 (protein)
chain: B11 chain with N121G, M130F, D176V
B13: PRT-324 (protein)
chain: B11 chain with N88G, W92L, P147G, A249P, A257F, V260R
B14: PRT-316 (protein)
chain: B11 chain with E21K, W92L, P147G, A257F, V260R
B15: PRT-331 (protein)
chain: B11 chain with W92L, N112D, N121G, M130F, P147G, D176V, A257F, V260R, I294Q
B16: PRT-284 (protein)
chain: MVTSVWTKGVTPPAKFTQGEDVFHAPYVANQGWYDITKTFNGKDDLLCGAATAGNMLHWWFDQNKEKIEAYLKKHPDKQKIMFGDQELLDVRKVINTKGDQTNSELFNYFRDKAFPNLSARRIGVMPDLVLDMFINGYYLNVYKTQTTDVNRTYQEKDRRGGIFDAVFTRGDQSKLLTSRHDFKEKNLKEISDLIKKELTEGKALGLSHTYANVRLNHVINLWGADFDSNGNLKAIYVTDSDSNASIGMKKYGVGVNSAGKVAISAKEIKEDNIGAQVLGLFTLSTGQDSWNQTN

Residue numbers refer to the chain shown, from its start.

The data set has as its target pooled human IgG (human IgG1,2,3 and 4).
B1 registered an Enzyme Activity Endpoint Assay: Fab′2 of 634 ng/µL, an Enzyme Activity Endpoint Assay: Fc of 365 ng/µL, an Enzyme Activity Endpoint Assay: IgG of 56 ng/µL and an Enzyme Activity Endpoint Assay: scIgG of 0 ng/µL.
Turning to B2, the Enzyme Activity Endpoint Assay: Fab′2 worked out at 429 ng/µL, the Enzyme Activity Endpoint Assay: Fc was determined as 325 ng/µL, the Enzyme Activity Endpoint Assay: IgG worked out at 90 ng/µL and the Enzyme Activity Endpoint Assay: scIgG was determined as 282 ng/µL.
Taken in the same sequence, the figures for B3 were 912 ng/µL, 383 ng/µL, 0 ng/µL and 0 ng/µL.
Taken in the same sequence, the figures for B4 were 998 ng/µL, 429 ng/µL, 0 ng/µL and 0 ng/µL.
Taken in the same sequence, the figures for B5 were 793 ng/µL, 354 ng/µL, 0 ng/µL and 0 ng/µL.
Take B6: the Enzyme Activity Endpoint Assay: Fab′2 came out at 405 ng/µL, the Enzyme Activity Endpoint Assay: Fc turned out to be 204 ng/µL, the Enzyme Activity Endpoint Assay: IgG stood at 59 ng/µL and the Enzyme Activity Endpoint Assay: scIgG is 106 ng/µL.
Taken in the same sequence, the figures for B7 were 758 ng/µL, 359 ng/µL, 0 ng/µL and 0 ng/µL.
Taken in the same sequence, the figures for B8 were 0 ng/µL, 0 ng/µL, 1680 ng/µL and 0 ng/µL.
Taken in the same sequence, the figures for B9 were 333 ng/µL, 274 ng/µL, 276 ng/µL and 43 ng/µL.
Protein B10 displayed an Enzyme Activity Endpoint Assay: Fab′2 of 11 ng/µL, an Enzyme Activity Endpoint Assay: Fc of 0 ng/µL, an Enzyme Activity Endpoint Assay: IgG of 1260 ng/µL and an Enzyme Activity Endpoint Assay: scIgG of 0 ng/µL.
In turn, B11 registered an Enzyme Activity Endpoint Assay: Fab′2 of 130 ng/µL, an Enzyme Activity Endpoint Assay: Fc of 256 ng/µL, an Enzyme Activity Endpoint Assay: IgG of 235 ng/µL and an Enzyme Activity Endpoint Assay: scIgG of 743 ng/µL.
In turn, B12 had an Enzyme Activity Endpoint Assay: Fab′2 of 409 ng/µL, an Enzyme Activity Endpoint Assay: Fc of 277 ng/µL, an Enzyme Activity Endpoint Assay: IgG of 0 ng/µL and an Enzyme Activity Endpoint Assay: scIgG of 177 ng/µL.
Taken in the same sequence, the figures for B13 were 665 ng/µL, 291 ng/µL, 0 ng/µL and 0 ng/µL.
B14 came in with an Enzyme Activity Endpoint Assay: Fab′2 of 772 ng/µL, an Enzyme Activity Endpoint Assay: Fc of 347 ng/µL, an Enzyme Activity Endpoint Assay: IgG of 80 ng/µL and an Enzyme Activity Endpoint Assay: scIgG of 0 ng/µL.
Taken in the same sequence, the figures for B15 were 954 ng/µL, 398 ng/µL, 0 ng/µL and 0 ng/µL.
Taken in the same sequence, the figures for B16 were 72 ng/µL, 184 ng/µL, 45 ng/µL and 483 ng/µL.
